± gives the uncertainty stated by the source.
B1: Zinc finger homeobox protein 4, residues 2183 to 2238; numbered along this chain, Q86UP3 (parent)
chain: SSRTRFTDYQLRVLQDFFDTNAYPKDDEIEQLSTVLNLPTRVIVVWFQNARQKARK

Variants of: B1
Test: abundance fitness (aPCA) (normalised: wild type 0, dead -1); higher = more abundant; growth selection in yeast, the domain comes from the species named
Conditions: Homo sapiens

Variant	abundance fitness
P24T	-0.698 ± 0.14
P24Q	-0.703 ± 0.18
P24F	-0.792 ± 0.17
P24W	-0.593 ± 0.12
P24M	-0.596 ± 0.17
P24H	-0.703 ± 0.21
P24G	-0.813 ± 0.087
P24E	-0.823 ± 0.14
P24C	-0.567 ± 0.13
P24A	-0.272 ± 0.099
P24L	-0.419 ± 0.099
P24I	-0.292 ± 0.18
P24V	-0.501 ± 0.092
P24N	-0.945 ± 0.23
P24Y	-0.746 ± 0.19
P24R	-0.657 ± 0.092
P24D	-0.832 ± 0.18
P24K	-0.817 ± 0.25
R12C	-0.732 ± 0.13
R12H	-0.166 ± 0.15
R12P	-0.608 ± 0.14
R12Y	-0.702 ± 0.18
R12T	-0.066 ± 0.12
R12L	-0.309 ± 0.08

Variant	abundance fitness
R12I	-0.623 ± 0.17
R12V	-0.544 ± 0.1
R12G	-0.147 ± 0.083
R12Q	-0.014 ± 0.15
R12N	-0.017 ± 0.19
R12F	-0.81 ± 0.16
R12M	-0.631 ± 0.17
R12S	-0.203 ± 0.089
R12A	-0.263 ± 0.092
L14I	-0.184 ± 0.14
L14N	-1.15 ± 0.25
L14V	-0.206 ± 0.077
L14C	-0.181 ± 0.11
L14A	-0.793 ± 0.1
L14W	-0.895 ± 0.14
L14M	0.049 ± 0.13
L14Q	-1.02 ± 0.27
L14G	-0.876 ± 0.078
L14E	-1.07 ± 0.14
L14F	-0.433 ± 0.17
L14Y	-1.08 ± 0.33
L14R	-0.911 ± 0.092
L14S	-0.731 ± 0.12
L14T	-0.93 ± 0.16

Variant	abundance fitness
L14P	-0.931 ± 0.15
L11Y	-0.194 ± 0.21
L11G	-0.016 ± 0.21
L11D	0.066 ± 0.27
L11I	-0.031 ± 0.17
L11A	-0.108 ± 0.24
L11V	-0.024 ± 0.16
L11H	-0.204 ± 0.16
L11E	0.095 ± 0.25
L11F	-0.011 ± 0.12
L11T	-0.063 ± 0.2
L11S	0.138 ± 0.14
L11R	-0.26 ± 0.17
L11M	-0.061 ± 0.2
L11C	-0.341 ± 0.25
L11N	0.053 ± 0.2
L11P	-1.19 ± 0.34
Y9C	-0.102 ± 0.13
Y9T	0.167 ± 0.1
Y9D	-0.128 ± 0.13
Y9I	-0.351 ± 0.3
Y9Q	0.283 ± 0.1
Y9W	0.02 ± 0.11
Y9F	0.261 ± 0.19

Variant	abundance fitness
Y9S	0.14 ± 0.099
Y9K	0.318 ± 0.12
Y9R	0.11 ± 0.076
Y9A	0.167 ± 0.086
Y9V	-0.038 ± 0.081
Y9E	0.081 ± 0.098
Y9G	0.062 ± 0.072
Y9M	0.025 ± 0.11
Y9N	0.057 ± 0.13
D19Q	-0.071 ± 0.14
D19M	-0.061 ± 0.12
D19I	-0.234 ± 0.17
D19P	-0.43 ± 0.17
D19T	0.164 ± 0.12
D19E	-0.235 ± 0.11
D19N	-0.087 ± 0.14
D19C	-0.236 ± 0.14
D19G	-0.032 ± 0.075
D19S	-0.131 ± 0.093
D19A	0.108 ± 0.081
D19K	-0.074 ± 0.13
D19L	-0.028 ± 0.098
D19H	-0.173 ± 0.15
D19F	-0.146 ± 0.19

Variant	abundance fitness
D19W	-0.292 ± 0.12
D19R	-0.147 ± 0.079
D19Y	-0.171 ± 0.18
Q10S	-0.335 ± 0.067
Q10C	-0.395 ± 0.082
Q10A	-0.459 ± 0.073
Q10L	-0.736 ± 0.075
Q10W	-0.826 ± 0.13
Q10I	-0.391 ± 0.091
Q10D	-0.454 ± 0.087
Q10F	-0.928 ± 0.12
Q10M	-0.14 ± 0.11
Q10V	-0.547 ± 0.076
Q10E	-0.297 ± 0.11
Q10H	-0.118 ± 0.076
Q10T	-0.176 ± 0.076
Q10K	-0.512 ± 0.13
Q10R	-0.657 ± 0.079
Q10Y	-0.787 ± 0.09
Q10G	-0.69 ± 0.084
V13A	-0.012 ± 0.2
V13N	-0.064 ± 0.2
V13P	-1.02 ± 0.31
V13R	0.079 ± 0.22

Variant	abundance fitness
V13I	-0.001 ± 0.13
V13D	0.079 ± 0.5
V13F	-0.056 ± 0.14
V13Q	0.057 ± 0.21
V13S	-0.068 ± 0.11
V13M	0.44 ± 0.18
V13G	0.047 ± 0.22
V13C	-0.181 ± 0.23
V13T	0.013 ± 0.13
V13W	-0.377 ± 0.36
V13Y	0.092 ± 0.14
V13H	0.203 ± 0.14
N21E	-0.197 ± 0.1
N21F	-0.451 ± 0.17
N21G	-0.387 ± 0.077
N21R	-0.181 ± 0.08
N21W	-0.556 ± 0.13
N21Y	-0.565 ± 0.2
N21P	-0.718 ± 0.17
N21D	-0.128 ± 0.13
N21Q	-0.497 ± 0.13
N21T	-0.027 ± 0.13
N21C	0.346 ± 0.16
N21M	-0.414 ± 0.13

Variant	abundance fitness
N21S	-0.2 ± 0.099
N21L	-0.488 ± 0.099
N21H	-0.219 ± 0.15
N21K	-0.201 ± 0.11
N21I	-0.187 ± 0.18
N21A	-0.176 ± 0.087
N21V	-0.279 ± 0.089
F6H	-0.328 ± 0.11
F6A	-0.654 ± 0.1
F6M	0.111 ± 0.1
F6Q	-0.568 ± 0.13
F6W	-0.257 ± 0.13
F6E	-0.344 ± 0.17
F6N	-0.375 ± 0.11
F6L	-0.122 ± 0.071
F6P	-0.697 ± 0.1
F6I	-0.09 ± 0.091
F6C	-0.094 ± 0.095
F6T	-0.266 ± 0.086
F6G	-0.335 ± 0.092
F6R	-0.726 ± 0.099
F6K	-0.522 ± 0.17
F6Y	-0.124 ± 0.1
F6D	-0.09 ± 0.12

Variant	abundance fitness
F6V	-0.133 ± 0.078
D8S	-0.315 ± 0.1
D8N	-0.351 ± 0.12
D8M	-0.125 ± 0.1
D8T	-0.257 ± 0.11
D8H	0.124 ± 0.17
D8V	-0.282 ± 0.079
D8I	-0.511 ± 0.17
D8A	-0.106 ± 0.082
D8F	-0.361 ± 0.19
D8W	-0.58 ± 0.097
D8G	-0.225 ± 0.078
D8R	-0.309 ± 0.094
D8C	-0.136 ± 0.14
D8E	-0.151 ± 0.099
D8L	-0.229 ± 0.078
D8Y	-0.662 ± 0.14
D8Q	0.103 ± 0.12
D8P	0.096 ± 0.11
R5W	-0.11 ± 0.17
R5Y	0.213 ± 0.15
R5Q	-0.241 ± 0.24
R5T	0.22 ± 0.13
R5V	0.133 ± 0.13

Variant	abundance fitness
F17V	-0.25 ± 0.09
F17Y	-0.196 ± 0.17
F17S	-0.097 ± 0.1
F17R	0.02 ± 0.078
F17N	0.049 ± 0.15
F17G	-0.243 ± 0.082
F17M	-0.004 ± 0.12
F17H	0.079 ± 0.14
F17P	-1 ± 0.18
F17T	-0.086 ± 0.11
F17D	-0.591 ± 0.19
F17A	-0.006 ± 0.097
F17L	-0.12 ± 0.09
F17K	-0.094 ± 0.1
F17Q	0.051 ± 0.11
F17E	-0.252 ± 0.12
F17I	-0.135 ± 0.18
Q15L	-0.036 ± 0.083
Q15F	-0.186 ± 0.15
Q15I	-0.141 ± 0.13
Q15D	-0.072 ± 0.12
Q15N	-0.158 ± 0.26
Q15P	-0.708 ± 0.14
Q15V	-0.095 ± 0.082

Variant	abundance fitness
Q15R	-0.107 ± 0.082
Q15M	0.058 ± 0.15
Q15T	-0.069 ± 0.11
Q15S	-0.004 ± 0.087
Q15Y	-0.27 ± 0.18
Q15G	-0.102 ± 0.082
Q15W	-0.333 ± 0.098
Q15E	-0.139 ± 0.12
Q15A	-0.05 ± 0.082
K25E	-0.455 ± 0.12
K25G	-0.072 ± 0.082
K25C	-0.111 ± 0.12
K25D	-0.177 ± 0.13
K25A	-0.203 ± 0.096
K25F	-0.467 ± 0.16
K25L	-0.233 ± 0.091
Y23I	-0.219 ± 0.15
Y23C	-0.228 ± 0.12
Y23Q	-0.173 ± 0.12
Y23D	0.313 ± 0.15
Y23T	-0.093 ± 0.12
Y23M	0.031 ± 0.12
Y23W	-0.061 ± 0.099
Y23L	0.008 ± 0.085

Variant	abundance fitness
Y23N	-0.369 ± 0.23
Y23V	-0.039 ± 0.095
Y23S	0.032 ± 0.092
Y23F	-0.084 ± 0.16
Y23G	-0.169 ± 0.089
Y23R	0.047 ± 0.074
Y23A	-0.097 ± 0.12
Y23P	-0.345 ± 0.12
Y23E	0.361 ± 0.13
A22D	0.002 ± 0.13
A22G	-0.186 ± 0.086
A22I	-0.065 ± 0.19
A22W	-0.169 ± 0.12
A22C	0.033 ± 0.13
A22L	-0.219 ± 0.1
A22Y	-0.309 ± 0.17
A22M	0.153 ± 0.13
A22P	0.133 ± 0.15
A22K	-0.116 ± 0.23
A22N	-0.077 ± 0.21
A22Q	0.005 ± 0.17
A22S	0.074 ± 0.098
A22E	-0.016 ± 0.13
A22F	-0.228 ± 0.22

Variant	abundance fitness
A22V	-0.086 ± 0.1
A22R	0.005 ± 0.086
T7Q	-0.27 ± 0.17
T7P	-0.368 ± 0.16
T7Y	-0.574 ± 0.32
T7H	-0.597 ± 0.41
T7M	-0.278 ± 0.14
T7L	-0.384 ± 0.12
T7D	-0.081 ± 0.18
T7K	-0.455 ± 0.18
T7C	-0.586 ± 0.17
T7G	-0.333 ± 0.086
T7W	-0.719 ± 0.15
T7V	-0.299 ± 0.11
T7S	-0.014 ± 0.11
T7A	-0.14 ± 0.11
T7R	-0.67 ± 0.093
F18R	-0.222 ± 0.078
F18Y	0.101 ± 0.086
F18W	-0.027 ± 0.14
F18H	-0.139 ± 0.08
F18Q	-0.329 ± 0.093
F18N	-0.459 ± 0.086
F18P	-0.891 ± 0.096

Variant	abundance fitness
F18S	-0.225 ± 0.071
F18C	-0.139 ± 0.097
F18T	-0.449 ± 0.074
F18K	-0.194 ± 0.11
F18A	-0.117 ± 0.082
F18E	-0.486 ± 0.15
F18D	-0.887 ± 0.15
F18G	-0.711 ± 0.12
F18I	-0.16 ± 0.076
T20C	0.002 ± 0.12
T20S	-0.047 ± 0.088
T20E	-0.22 ± 0.12
T20I	-0.308 ± 0.14
T20H	-0.179 ± 0.18
T20G	-0.041 ± 0.079
T20N	-0.058 ± 0.16
T20P	-0.57 ± 0.15
T20Q	-0.196 ± 0.13
T20M	-0.101 ± 0.13
T20L	-0.205 ± 0.083
T20D	-0.205 ± 0.13
T20W	-0.158 ± 0.1
T20A	0.108 ± 0.089
T20R	0.072 ± 0.078

Variant	abundance fitness
T20K	0.133 ± 0.12
T20F	-0.503 ± 0.14
T20V	-0.199 ± 0.092
D16R	-0.083 ± 0.088
D16Y	-0.458 ± 0.22
D16E	0.014 ± 0.11
D16C	-0.32 ± 0.16
D16K	-0.108 ± 0.15
D16G	0.093 ± 0.084
D16M	-0.323 ± 0.12
D16I	-0.644 ± 0.21
D16V	-0.25 ± 0.086
D16N	-0.034 ± 0.14
D16S	0.042 ± 0.097
D16F	-0.806 ± 0.25
D16Q	0.027 ± 0.12
D16P	-0.357 ± 0.14
D16T	-0.29 ± 0.13
D16L	-0.602 ± 0.098
D16W	-0.838 ± 0.14
D16A	-0.065 ± 0.12
D16H	-0.193 ± 0.17
